Where a chain is given by its changes, count along the chain named. Numbers in names are those of the source.
B1: EDB-(K94R)-vc-0101 (antibody, human IgG1, kappa)
heavy: not shown
light: EIVLTQSPGTLSLSPGERATLSCRASQSVSSSFLAWYQQKPGQAPRLLIYYASSRATGIPDRFSGSGSGTDFTLTISRLEPEDFAVYYCQQTGRIPPTFGQGTKVEIKRTVAAPSVFIFPPSDEQLKSGTASVVCLLNNFYPREAKVQWKVDNALQSGNSQESVTEQDSKDSTYSLSSTLTLSKADYEKHKVYACEVTHQGLSSPVTKSFNRGEC
modifications: vc-0101 linker-payload on cysteine residues (conventional conjugation, Method A); vc-0101 linker-payload on cysteine residues (conventional conjugation, Method A); average DAR 3.7 (LC/MS)
B2: EDB-(κK183C-K94R-K290C)-vc-0101 (antibody, human IgG1, kappa)
heavy: not shown
light: B1 light with K184C
modifications: vc-0101 linker-payload on engineered Cys 183 (κK183C, Kabat), Method B; vc-0101 linker-payload on engineered Cys 290 (K290C, EU index), Method B; average DAR 3.8 (LC/MS)

Target: EDB+FN (fibronectin containing the extra-domain B) on WI38-VA13 cells (human, UniProt P02751 32-2477)
Assay: cell-based or functional assay

Sequence of EDB+FN (fibronectin containing the extra-domain B) on WI38-VA13 cells (P02751 32-2477 limits assumed, form in doubt): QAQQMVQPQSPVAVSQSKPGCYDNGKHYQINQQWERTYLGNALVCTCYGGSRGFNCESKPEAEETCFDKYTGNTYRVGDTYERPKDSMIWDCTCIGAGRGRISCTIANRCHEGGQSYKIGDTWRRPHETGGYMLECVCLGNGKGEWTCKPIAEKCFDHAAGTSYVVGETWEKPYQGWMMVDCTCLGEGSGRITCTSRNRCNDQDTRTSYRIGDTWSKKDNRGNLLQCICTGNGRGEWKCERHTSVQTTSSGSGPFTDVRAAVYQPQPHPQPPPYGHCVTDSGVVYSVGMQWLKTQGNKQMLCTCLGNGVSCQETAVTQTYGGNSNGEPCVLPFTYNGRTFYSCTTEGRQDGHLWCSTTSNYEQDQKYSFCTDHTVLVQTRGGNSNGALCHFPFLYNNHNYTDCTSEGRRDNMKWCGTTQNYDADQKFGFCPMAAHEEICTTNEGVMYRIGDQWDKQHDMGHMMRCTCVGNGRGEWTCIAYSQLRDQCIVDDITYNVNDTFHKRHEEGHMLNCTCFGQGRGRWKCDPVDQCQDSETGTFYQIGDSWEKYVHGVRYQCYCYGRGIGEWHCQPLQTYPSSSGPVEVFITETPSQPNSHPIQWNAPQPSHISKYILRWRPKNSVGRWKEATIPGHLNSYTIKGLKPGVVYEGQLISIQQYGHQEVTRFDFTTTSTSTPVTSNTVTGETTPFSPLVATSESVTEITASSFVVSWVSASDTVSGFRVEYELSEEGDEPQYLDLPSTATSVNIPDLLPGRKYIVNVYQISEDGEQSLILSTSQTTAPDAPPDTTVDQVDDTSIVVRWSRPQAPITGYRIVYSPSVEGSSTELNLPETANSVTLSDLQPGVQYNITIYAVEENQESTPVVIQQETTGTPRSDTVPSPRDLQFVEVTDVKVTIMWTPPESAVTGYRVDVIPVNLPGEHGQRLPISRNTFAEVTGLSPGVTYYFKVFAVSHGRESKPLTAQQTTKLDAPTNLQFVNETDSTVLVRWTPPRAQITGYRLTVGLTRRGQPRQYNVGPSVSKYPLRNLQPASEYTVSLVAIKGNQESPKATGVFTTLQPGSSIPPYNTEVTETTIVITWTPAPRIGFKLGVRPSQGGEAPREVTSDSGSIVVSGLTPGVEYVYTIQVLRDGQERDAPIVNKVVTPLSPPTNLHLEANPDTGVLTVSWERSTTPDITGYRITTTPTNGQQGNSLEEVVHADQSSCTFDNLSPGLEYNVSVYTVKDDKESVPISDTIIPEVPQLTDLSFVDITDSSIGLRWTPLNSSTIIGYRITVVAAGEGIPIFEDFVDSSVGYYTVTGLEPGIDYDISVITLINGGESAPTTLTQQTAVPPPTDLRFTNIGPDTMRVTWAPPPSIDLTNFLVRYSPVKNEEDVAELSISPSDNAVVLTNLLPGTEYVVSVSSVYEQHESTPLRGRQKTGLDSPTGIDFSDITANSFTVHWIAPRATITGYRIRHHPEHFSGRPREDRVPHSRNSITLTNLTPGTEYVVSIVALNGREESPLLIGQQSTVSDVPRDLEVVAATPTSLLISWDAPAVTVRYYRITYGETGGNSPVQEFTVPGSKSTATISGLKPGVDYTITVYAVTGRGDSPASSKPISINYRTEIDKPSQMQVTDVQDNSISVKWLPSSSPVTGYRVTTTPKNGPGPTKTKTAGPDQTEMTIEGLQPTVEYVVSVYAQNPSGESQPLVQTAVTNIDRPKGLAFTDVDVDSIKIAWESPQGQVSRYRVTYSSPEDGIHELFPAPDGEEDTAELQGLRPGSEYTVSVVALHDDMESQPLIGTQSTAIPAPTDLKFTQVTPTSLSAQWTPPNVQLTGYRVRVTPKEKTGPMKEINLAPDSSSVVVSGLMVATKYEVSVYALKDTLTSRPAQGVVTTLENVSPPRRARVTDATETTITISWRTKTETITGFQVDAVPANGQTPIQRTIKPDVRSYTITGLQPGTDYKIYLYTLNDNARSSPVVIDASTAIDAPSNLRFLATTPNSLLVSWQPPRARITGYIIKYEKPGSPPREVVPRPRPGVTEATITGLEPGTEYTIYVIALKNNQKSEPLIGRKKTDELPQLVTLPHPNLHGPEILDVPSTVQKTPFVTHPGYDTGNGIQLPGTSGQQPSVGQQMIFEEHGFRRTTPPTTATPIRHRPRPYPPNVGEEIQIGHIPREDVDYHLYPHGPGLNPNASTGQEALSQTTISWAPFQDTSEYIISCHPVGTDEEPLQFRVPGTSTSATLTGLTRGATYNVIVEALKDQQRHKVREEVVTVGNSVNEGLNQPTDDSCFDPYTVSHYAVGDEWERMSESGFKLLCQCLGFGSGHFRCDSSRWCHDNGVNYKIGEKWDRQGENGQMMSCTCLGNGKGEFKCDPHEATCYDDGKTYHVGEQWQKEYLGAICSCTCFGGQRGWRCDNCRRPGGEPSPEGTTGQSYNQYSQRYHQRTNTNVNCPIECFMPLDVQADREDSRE

Binder | Avg IC50, in vitro cytotoxicity on WI38-VA13 cells (Cell Titer Glo, 4 days)
B1 | 184 ng/ml of antibody
B2 | 216 ng/ml of antibody
